Results as given in paper PMC4381330, “Identification of a novel selective agonist of PPARγ with no promotion of adipogenesis and less inhibition of osteoblastogenesis” (Scientific Reports, 2015).
No end group written: not given here.

What was measured:
[1] = molecular target: T1, GST-fused human PPARγ-LBD (human); experiment: AlphaScreen or HTRF; LanthaScreen TR-FRET coregulator peptide assay; serial concentrations of rosiglitazone with GST-PPARγ-LBD, terbium-labeled anti-GST antibody and fluorescein-labeled peptide, 4 h; 520 nm/495 nm ratio; details: both partners purified
T1 construct: Kit protein, detected through a terbium-labeled anti-GST antibody
T1 sequence (P37231 whole entry, the tested form may be a part): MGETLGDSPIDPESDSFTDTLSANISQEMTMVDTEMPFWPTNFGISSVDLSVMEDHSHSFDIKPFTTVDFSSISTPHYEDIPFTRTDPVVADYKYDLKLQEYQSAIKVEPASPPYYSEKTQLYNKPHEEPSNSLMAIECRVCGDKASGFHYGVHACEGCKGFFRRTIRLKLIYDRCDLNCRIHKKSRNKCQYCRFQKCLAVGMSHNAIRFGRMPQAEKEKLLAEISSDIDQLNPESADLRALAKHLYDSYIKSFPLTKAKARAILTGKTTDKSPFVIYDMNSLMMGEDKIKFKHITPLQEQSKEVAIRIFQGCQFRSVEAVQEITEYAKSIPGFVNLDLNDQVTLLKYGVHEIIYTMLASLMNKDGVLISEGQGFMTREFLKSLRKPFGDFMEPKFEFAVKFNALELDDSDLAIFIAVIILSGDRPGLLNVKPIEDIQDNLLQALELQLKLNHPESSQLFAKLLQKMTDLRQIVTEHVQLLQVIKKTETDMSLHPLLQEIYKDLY

[2] = molecular target: T1, GST-fused human PPARγ-LBD; experiment: AlphaScreen or HTRF; LanthaScreen TR-FRET coregulator peptide assay; serial concentrations of F12016 with GST-PPARγ-LBD, terbium-labeled anti-GST antibody and fluorescein-labeled peptide, 4 h; coactivator data as percent of the maximum of rosiglitazone; details: both partners purified

efficacy (maximum recruitment, % of rosiglitazone), with rosiglitazone [1]	efficacy (maximum recruitment, % of rosiglitazone), with F12016 [2]	Binder
100%	25%	VTLTSPLLVNLLQSDISAG (also: fluorescein label, position not given here) [nuclear receptor coactivator 250 (RAP250) peptide, fluorescein-labeled]
100%	17%	NTKNHPMLMNLLKDNPAQD (also: fluorescein label, position not given here)
100%	57%	EAEEPSLLKKLLLAPANTQ (also: fluorescein label, position not given here) [PPARγ coactivator 1α (PGC-1α) peptide, fluorescein-labeled]
